Reference: paper PMC7774954 (PLoS ONE, 2020)
Where no end group is shown, it is not given here. The star is where a group is joined. Biotin = O=C1N[C@H]2[C@H](CS[C@H]2CCCCC(=O)*)N1; TTDS = NCCCOCCOCCOCCCNC(=O)CCC(=O)*

T1: PDZD7-3, third PDZ domain of PDZD7 (human, UniProt Q9H5P4 862-934)
T1 construct: PDZD7, human, PDZ domain 3; not shown: His6, N-terminal, kept; MBP, N-terminal, kept
T1 sequence (looked up): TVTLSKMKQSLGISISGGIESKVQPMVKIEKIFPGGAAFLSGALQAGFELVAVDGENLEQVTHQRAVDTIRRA

T2: NHERF1-1 (human, UniProt O14745 14-94)
T2 construct: PDZ domain number 1 of human NHERF1; also called NHERF1 PDZ dom 1; first PDZ domain of the NHERF1 protein; source: E. coli, in crude cell lysate; not shown: His, N-terminal, kept
T2 sequence (looked up): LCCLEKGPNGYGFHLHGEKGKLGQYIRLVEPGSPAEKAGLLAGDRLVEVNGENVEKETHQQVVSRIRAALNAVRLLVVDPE

T3: PTPN13-2 (human, UniProt Q12923 1368-1452)
T3 construct: PDZ domain number 2 of human PTPN13; also called PTPN13 PDZ dom 2; source: E. coli, in crude cell lysate; not shown: His, N-terminal, kept
T3 sequence (looked up): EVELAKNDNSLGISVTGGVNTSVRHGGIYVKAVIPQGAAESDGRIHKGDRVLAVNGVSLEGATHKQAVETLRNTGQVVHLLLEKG

T4: PARD3B-1, first PDZ domain of PARD3B (human, UniProt Q8TEW8 201-289)
T4 construct: PARD3B, human, PDZ domain 1; not shown: His6, N-terminal, kept; MBP, N-terminal, kept
T4 sequence (looked up): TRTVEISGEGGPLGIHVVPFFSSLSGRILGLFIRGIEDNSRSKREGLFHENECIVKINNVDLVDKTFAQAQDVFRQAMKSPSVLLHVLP

B1: PTEN_13, 13-mer wild-type PDZ-binding motif peptide of PTEN (peptide)
peptide: {Biotin-TTDS}-PFDEDQHTQITKV
notes: source: synthetic peptide, bought: JPT Innovative Peptide Solutions (70%-80% purity)
B2: PTEN_11, 11-mer wild-type PDZ-binding motif peptide of PTEN (peptide)
peptide: {Biotin-TTDS}-DEDQHTQITKV
notes: Labelled 'PTEN' in Supp; source: synthetic peptide (Chemical Peptide Synthesis Service of the IGBMC)
B3: PTEN_KR, 11-mer PTEN PDZ-binding motif peptide with K402R (peptide)
peptide: {Biotin-TTDS}-DEDQHTQITRV
notes: PTEN, human, canonical isoform I, residues 393-403 with K402R; source: synthetic peptide (Chemical Peptide Synthesis Service of the IGBMC)
B4: PTEN_Ac (peptide, UniProt P60484 393-403, looked up)
peptide: {Biotin-TTDS}-DEDQHTQITK(Ac)V
notes: also called acetylated version of PTEN_11; acetylated peptide; source: synthetic peptide (Chemical Peptide Synthesis Service of the IGBMC, Fmoc)
B5: PTEN_KR (peptide, UniProt P60484 393-403, looked up)
peptide: {Biotin-TTDS}-DEDQHTQITRV
notes: also called K402R mutant; source: synthetic peptide (Chemical Peptide Synthesis Service of the IGBMC, Fmoc)
B6: PTEN_11 (peptide, UniProt P60484 393-403, looked up)
peptide: {Biotin-TTDS}-DEDQHTQITKV
notes: also called 11-mer wild-type PTEN PBM peptide; native PTEN_11 PBM; source: synthetic peptide (Chemical Peptide Synthesis Service of the IGBMC, Fmoc)
B7: PTEN_Ac, 11-mer PTEN PDZ-binding motif peptide acetylated at K402 (peptide)
peptide: {Biotin-TTDS}-DEDQHTQITK(Ac)V
notes: PTEN, human, canonical isoform I, residues 393-403, K402 acetylated (acK); source: synthetic peptide (Chemical Peptide Synthesis Service of the IGBMC)

What was measured:
[1] = molecular target: T5, MAGI2-2, second PDZ domain of MAGI2 (human, UniProt Q86UL8 426-510); assay: fluorescence polarisation; competitive: pre-formed complex of PDZ domain (>60-80% complex) and 50 nM fluorescent tracer peptide, increasing amount of unlabeled PTEN peptide (8 concentrations); 20 mM HEPES pH 7.5, 150 mM NaCl, 0.5 mM TCEP, 0.01% Tween 20; triplicate; competitive binding model (ProFit); apparent; conditions: both partners purified
T5 construct: not shown: His6, N-terminal, kept; MBP, N-terminal, kept
T5 sequence (Q86UL8 426-510): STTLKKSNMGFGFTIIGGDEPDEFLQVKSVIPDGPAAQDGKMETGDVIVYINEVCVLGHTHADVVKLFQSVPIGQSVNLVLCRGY

[2] = molecular target: T1, PDZD7-3, third PDZ domain of PDZD7; assay: as above; conditions: both partners purified
[3] = molecular target: T6, GRID2IP-2, second PDZ domain of GRID2IP (human, UniProt A4D2P6 279-356); assay: as above; conditions: both partners purified
T6 construct: GRID2IP, human, PDZ domain 2; not shown: His6, N-terminal, kept; MBP, N-terminal, kept
T6 sequence (A4D2P6 279-356): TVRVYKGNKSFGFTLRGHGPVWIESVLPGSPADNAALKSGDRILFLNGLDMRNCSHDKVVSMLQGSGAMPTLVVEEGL

DLG4-1 = DLG4-1 (human, UniProt P78352 65-151); assay: holdup assay; biotinylated PBM peptide saturating streptavidin resin (biotin resin as reference); tag-PDZ at 4 uM in crude E. coli lysate, 15 min, filtration, free tag-PDZ by capillary electrophoresis; singlicate; BI cut-off 0.20; BI converted into KD with the peptide concentration back-calculated from FP; conditions: one partner purified
DLG4-1, sequence (P78352 65-151, looked up): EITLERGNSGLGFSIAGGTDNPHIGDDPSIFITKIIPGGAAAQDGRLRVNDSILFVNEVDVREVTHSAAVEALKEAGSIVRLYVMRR

MAGI2-2 = molecular target: T7, MAGI2-2 (human, UniProt Q86UL8 426-510); assay: as above; conditions: one partner purified
T7 construct: PDZ domain number 2 of human MAGI2; also called MAGI2 PDZ dom 2; source: E. coli, in crude cell lysate; not shown: His, N-terminal, kept
T7 sequence (Q86UL8 426-510): as the sequence (Q86UL8 426-510) above

MAGI1-3 = molecular target: T8, MAGI1-3 (human, UniProt Q96QZ7 643-721); assay: as above; conditions: one partner purified
T8 construct: PDZ domain number 3 of human MAGI1; also called MAGI1 PDZ dom 3; source: E. coli, in crude cell lysate; not shown: His, N-terminal, kept
T8 sequence (Q96QZ7 643-721): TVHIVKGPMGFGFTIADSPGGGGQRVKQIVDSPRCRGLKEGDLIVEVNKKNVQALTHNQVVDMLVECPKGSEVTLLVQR

NHERF1-1 = molecular target: T2, NHERF1-1; assay: as above; conditions: one partner purified
MAGI2-3 = molecular target: T9, MAGI2-3 (human, UniProt Q86UL8 605-683); assay: as above; conditions: one partner purified
T9 construct: PDZ domain number 3 of human MAGI2; also called MAGI2 PDZ dom 3; source: E. coli, in crude cell lysate; not shown: His, N-terminal, kept
T9 sequence (Q86UL8 605-683): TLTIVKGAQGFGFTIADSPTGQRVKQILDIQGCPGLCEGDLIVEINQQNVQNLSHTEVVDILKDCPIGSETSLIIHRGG

DLG1-2 = molecular target: T10, DLG1-2 (human, UniProt Q12959 319-405); assay: as above; conditions: one partner purified
T10 construct: PDZ domain number 2 of human DLG1; also called DLG1 PDZ dom 2; source: E. coli, in crude cell lysate; not shown: His, N-terminal, kept

PARD3-3 = molecular target: T11, PARD3-3 (human, UniProt Q8TEW0 590-677); assay: as above; conditions: one partner purified
T11 construct: the text says PARD3-1; also called PARD3 PDZ dom 3; source: E. coli, in crude cell lysate; not shown: His, N-terminal, kept
T11 sequence (Q8TEW0 590-677): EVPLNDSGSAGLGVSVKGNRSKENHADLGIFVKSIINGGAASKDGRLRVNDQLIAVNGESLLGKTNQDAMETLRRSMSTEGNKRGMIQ

NHERF2-1 = molecular target: T12, NHERF2-1 (human, UniProt Q15599 11-90); assay: as above; conditions: one partner purified
T12 construct: PDZ domain number 1 of human NHERF2; also called NHERF2 PDZ dom 1; source: E. coli, in crude cell lysate; not shown: His, N-terminal, kept
T12 sequence (Q15599 11-90): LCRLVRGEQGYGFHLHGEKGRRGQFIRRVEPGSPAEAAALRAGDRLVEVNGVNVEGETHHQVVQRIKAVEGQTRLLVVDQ

PTPN13-2 = molecular target: T3, PTPN13-2; assay: as above; conditions: one partner purified
MAGI3-2 = molecular target: T13, MAGI3-2 (human, UniProt Q5TCQ9 410-492); assay: as above; conditions: one partner purified
T13 construct: PDZ domain number 2 of human MAGI3; also called MAGI3 PDZ dom 2; source: E. coli, in crude cell lysate; not shown: His, N-terminal, kept
T13 sequence (Q5TCQ9 410-492): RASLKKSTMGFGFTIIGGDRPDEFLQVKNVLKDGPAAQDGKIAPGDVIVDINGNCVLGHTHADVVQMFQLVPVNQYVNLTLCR

NHERF2-2 = molecular target: T14, NHERF2-2 (human, UniProt Q15599 150-230); assay: as above; conditions: one partner purified
T14 construct: PDZ domain number 2 of human NHERF2; also called NHERF2 PDZ dom 2; source: E. coli, in crude cell lysate; not shown: His, N-terminal, kept
T14 sequence (Q15599 150-230): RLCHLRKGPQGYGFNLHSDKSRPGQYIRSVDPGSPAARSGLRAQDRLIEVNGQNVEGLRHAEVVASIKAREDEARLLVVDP

[4] = molecular target: T4, PARD3B-1, first PDZ domain of PARD3B; assay: fluorescence polarisation; direct: N-terminally fluorescein-labelled PBM peptide (tracer) with increasing amounts of MBP-PDZ; 384-well plates; triplicate; direct binding model (ProFit); conditions: both partners purified
[5] = molecular target: T1, PDZD7-3, third PDZ domain of PDZD7; assay: as above; conditions: both partners purified
[6] = molecular target: T6, GRID2IP-2, second PDZ domain of GRID2IP; assay: as above; conditions: both partners purified

Binder	Kd [2]	Kd [3]	Kd (DLG4-1)	Kd (MAGI2-2)	Kd (MAGI1-3)	Kd (NHERF1-1)	Kd (MAGI2-3)	other results
B1	5.76 µM							Kd [1]: 79.7 µM
B2	20.1 µM	87 µM						
B3	8.2 µM	51.6 µM						
B4			155 µM	56 µM	10 µM	14 µM	15 µM	
B5			81 µM	29 µM	15 µM	4 µM	21 µM	Kd (DLG1-2): 71 µM; Kd (PARD3-3): 56 µM; Kd (NHERF2-1): 120 µM; Kd (PTPN13-2): 153 µM; Kd (MAGI3-2): 29 µM; Kd (NHERF2-2): 21 µM
fluorescein-KLPSTTL (source: synthetic peptide) [fRSK1, fluorescein-labelled RSK1 PBM peptide]								Kd [4]: 33.7 µM; Kd [5]: 1570 nM; Kd [6]: 5.43 µM
B6			293 µM	152 µM	30 µM	33 µM	47 µM	
B7	2.84 µM	36.7 µM						Kd [1]: 66.4 µM
